Laboratory results: patent US20240343803A1 (SHANDONG SIMCERE BIOPHARMACEUTICAL, published 2024)
One block for each binder: values may come before it.

What was measured:
[1] = biological target: T1, human PVRIG-his (AcroBiosystems, Cat NO. PVG-H52H4) (human, UniProt Q6DKI7 41-171, limits assumed); assay: SPR (BIAcore), antibody captured on Protein A chip, human PVRIG-His analyte
T1 construct: also called human PVRIG protein
T1 sequence (looked up): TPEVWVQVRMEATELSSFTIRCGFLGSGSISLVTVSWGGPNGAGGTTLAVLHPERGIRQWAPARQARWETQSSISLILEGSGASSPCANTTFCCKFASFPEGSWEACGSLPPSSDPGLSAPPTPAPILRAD
Method: Biacore was used to detect the specific binding between anti-PVRIG antibody and human PVRIG protein. Protein A chip was used in the BIAcore assay. The time required for the chip to capture the diluted antibody and saturate the binding antigen to reach Rₘₐₓ (Maximum binding capacity, 50 RU) was measured by manual run. […] The affinity of antibody for antigen was measured by multi-cycle kinetics. In each cycle, the antibodies were injected prior to the injection of gradient concentraions of PVRIG proteins allowing the occurrence of antibody-antigen association and dissociation After each cycle, the Protein A chip was regenerated by Glycine, pH 1.5 (to remove the proteins on the chip). The affinity of antibody for antigen was calculated by BIAcore T200 analysis software.

[2] = biological target: T1, human PVRIG-his (AcroBiosystems, Cat …); assay: competition ELISA, PVRIG-His coated, competitor human PVRL2-mFc
Method: The ELISA plate was pre-coated with 100 μL/well of 0.5 μg/mL human PVRIG-his protein (AcroBiosystems, Cat NO. PVG-H52H4). The tested anti-PVRIG antibodies were diluted from the highest concentration of 16 nM (two-fold concentration). The diluted antibodies were mixed with 18 ng/ml human PVRL2-mFc (AcroBiosystems, Cat NO. CD2-H5257) in equal volume, added into the plate (100 μL/well), and incubated with shaking at room temperature for 2.0 hours. […] A HRP substrate, TMB (Thermo, Cat NO. 34029) was added into wells after washing the plate again for color development. After adding a termination solution to terminate the reaction, the absorbance value was read by a microplate reader (MD i3×). An inhibiting curve was drawn with concentration of antibodies as the abscissa and the corresponding OD value as the ordinate. The IC50 value was calculated by using a Four Parameter Logistic Fit (GraphPadPrism9). The smaller the IC50 value, the stronger the ability of the antibodies inhibits the binding between PVRIG and PVRL2. The positive and negative controls are the same as in Example 8.

[3] = biological target: T2, human PVRIG-mFc protein (Acro, PVG-H5253) (human, UniProt Q6DKI7 41-171, limits assumed); assay: FACS competition, PVRIG-mFc binding to CHO-K1-CD112 cells, competitor CD112 on cells
T2 construct: bought protein
T2 sequence (looked up): T1 sequence (looked up)
Method: A working solution of human PVRIG-mFc protein (Acro, PVG-H5253) prepared with staining buffer, 1 μg/mL (four-fold concentration), was added into a 96-well plate (50 μL PVRIG-mFc working solution per well). […] The diluted antibodies were added to the well containing 50 μL of PVRIG-mFc. The plate was placed on a microplate shaker at 400 rpm for 1 minute to fully mix the antibodies and PVRIG-mFc proteins, and then incubated at 4° C. for 30 minutes. After the incubation, the cell suspension prepared above (100 μL) was added into the wells, gently mixed with the pipette tip and incubated at 4° C. for 30 minutes. After the incubation, the cells were washed twice with staining buffer (200 μL per well) and centrifuged at 350×g for 5 minutes to discard the supernatant. The PE goat anti-mouse IgG Fc antibody (Biolegend, 405337) was diluted 250 times with staining buffer, added into the washed wells (100 μL per well), mixed well, and stained at 4° C. for 30 minutes. After staining, the cells were washed twice with staining buffer, finally resuspended with 200 μL staining buffer and analyzed by flow cytometry (BD, Canto II). The weaker the fluorescence signal, the stronger the ability of the antibodies blocks the binding of CHO-K1 human CD112 cells to the PVRIG-mFc protein. An antibody binding curve was drawn with concentration of antibodies as the abscissa and the corresponding Mean Fluorescence Intensity (MFI) as the ordinate. The IC50 value of the antibodies and the AUC value of the binding curve were calculated by using a Four Parameter Logistic Fit (GraphPadPrism9). The smaller the IC50 value and AUC value, the stronger the ability of the antibodies competes with CHO-K1-CD112 cells to bind to human PVRIG-mFc protein. […] […] The smaller the percentage value, the stronger the blocking ability of the antibodies.

[4] = biological target: T3, Fusion protein of extracellular domain of cynomolgus monkey TIGIT and mouse IgG2a Fc fragment (cynomolgus … (cynomolgus monkey)); assay: ELISA, cynomolgus monkey TIGIT ECD-mFc
T3 construct: The entry includes the signal peptide (limits not recoverable) and the mouse IgG2a Fc
Summary of the method: (§1)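 Plates blocked with 5% skim milk-PBS at 37° C for 2-4 h. Test antibodies applied as a 12-point 3-fold series from 13 nM for 1.5-2 h at 37° C. Read-out: HRP secondary (1:5000, 1 h, 37° C), TMB colour for 7-10 min at room temperature, acid stop, absorbance at OD450 nm.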

[5] = biological target: T4, Fusion protein of extracellular domain of human TIGIT and His-tag (human TIGIT ECD-his) (human); assay: BIAcore; KD ratio to TIGIT-CHI-006
T4 chain: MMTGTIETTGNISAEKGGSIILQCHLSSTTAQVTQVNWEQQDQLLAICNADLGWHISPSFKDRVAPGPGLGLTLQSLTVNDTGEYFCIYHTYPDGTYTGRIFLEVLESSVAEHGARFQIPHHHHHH

[6] = biological target: T5, Fusion protein of extracellular domain of human TIGIT and human IgG1 Fc fragment (human TIGIT ECD-hFc) (human); assay: blocking of TIGIT ECD-hFc binding to CHO-K1 CD155 cells
T5 construct: The entry includes the signal peptide (limits not recoverable) and the human IgG1 Fc
Summary of the method: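 The inhibition curves from which IC50 was calculated were generated by cell-based ELISA. Fixed CHO-K1 CD155 cells, blocked with 5% skim milk-PBS, were incubated at 37° C for 1.5-2 h with antibodies that had been premixed for 0.5 h with human TIGIT ECD-hFc at a working concentration of 30 ng/mL. Detection of bound TIGIT used HRP secondary antibody at 1:5000 for 1 h at 37° C, followed by TMB and reading as OD450 nm.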

[7] = biological target: T6, Full-length cynomolgus monkey TIGIT on CHO-K1 cells (CHO-K1 cynomolgus monkey TIGIT) (cynomolgus monkey); assay: cell binding, CHO-K1 cynomolgus monkey TIGIT
T6 construct: NCBI XP_015300911.1
Method: The collected cells were washed once with PBS (Hyclone, CAT #SH30256), resuspended to 2×10⁵/50 μL with 1% BSA-PBS. The antibodies were diluted to 80 nM with 1% BSA-PBS (diluted by 3-fold serial dilution for 12 concentration points). The 50 μL cells were then mixed with 50 μL diluted antibodies, and then incubated at 4° C. for 60 minutes. […] After washing twice with PBS, the cell samples were resuspended with 1% BSA-PBS, 100 μL/well and then analyzed by flow cytometry (BD, Canto II). […] [0298] (c) The effect of anti-TIGIT chimeric antibodies blocking the interaction between Bio-CD155-His and CHO-K1 human TIGIT high expression cell strains detected by FACS
The affinity of the above humanized antibodies with human TIGIT ECD-His is detected by BIAcore, and with reference to the methods of Example 4 (a), (b), and (d), the binding activity of the above humanized antibodies to human TIGIT ECD-mFc, CHO-K1 human TIGIT, CHO-K1 cynomolgus monkey TIGIT and cynomolgus monkey TIGIT ECD-mFc, and the effect of the humanized antibodies blocking the binding between human TIGIT ECD-mFc and CHO-K1 CD155 are detected, the results are shown in Table 18.

[8] = biological target: T4, Fusion protein of extracellular domain …; assay: BIAcore
[9] = biological target: T7, Full-length human TIGIT on CHO-K1 cells (CHO-K1 human TIGIT) (human, UniProt Q495A1 22-244); assay: cell binding, CHO-K1 human TIGIT high expression strain
T7 construct: NCBI XP_024309156.1; the entry includes the signal peptide (limits not recoverable); The strain (high, medium, low) is named under assay; also called high expression strain 1D2; medium expression strain 2D10
T7 sequence: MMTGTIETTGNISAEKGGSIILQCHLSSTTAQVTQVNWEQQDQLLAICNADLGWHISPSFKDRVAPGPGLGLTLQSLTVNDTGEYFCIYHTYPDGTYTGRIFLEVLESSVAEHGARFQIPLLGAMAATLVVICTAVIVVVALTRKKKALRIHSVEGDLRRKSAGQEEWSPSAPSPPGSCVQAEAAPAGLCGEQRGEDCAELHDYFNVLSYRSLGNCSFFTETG
Summary of the method: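 Binding was measured by flow cytometry after a 60-minute, 4° C incubation of the antibodies with 2×10⁵ CHO-K1 cells displaying full-length human or cynomolgus monkey TIGIT. Antibody titration: 12 points, threefold serial dilution from 80 nM, in 1% BSA-PBS.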

[10] = biological target: T8, Fusion protein of extracellular domain of human TIGIT and mouse IgG2a Fc fragment (human TIGIT ECD-mFc) (human); assay: ELISA, human TIGIT ECD-mFc
T8 construct: The entry includes the signal peptide (limits not recoverable) and the mouse IgG2a Fc
T8 chain: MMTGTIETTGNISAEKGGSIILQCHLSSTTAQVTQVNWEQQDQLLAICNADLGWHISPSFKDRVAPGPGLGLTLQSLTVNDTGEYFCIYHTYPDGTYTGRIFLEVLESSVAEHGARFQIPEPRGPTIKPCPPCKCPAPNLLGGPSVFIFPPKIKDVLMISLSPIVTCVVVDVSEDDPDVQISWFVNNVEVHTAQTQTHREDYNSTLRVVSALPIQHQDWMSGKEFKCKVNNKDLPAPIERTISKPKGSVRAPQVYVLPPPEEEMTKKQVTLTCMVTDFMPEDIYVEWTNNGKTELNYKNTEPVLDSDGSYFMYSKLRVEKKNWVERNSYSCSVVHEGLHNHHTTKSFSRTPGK
Summary of the method: as §1

T5 sequence (chain, as listed by the source limits assumed): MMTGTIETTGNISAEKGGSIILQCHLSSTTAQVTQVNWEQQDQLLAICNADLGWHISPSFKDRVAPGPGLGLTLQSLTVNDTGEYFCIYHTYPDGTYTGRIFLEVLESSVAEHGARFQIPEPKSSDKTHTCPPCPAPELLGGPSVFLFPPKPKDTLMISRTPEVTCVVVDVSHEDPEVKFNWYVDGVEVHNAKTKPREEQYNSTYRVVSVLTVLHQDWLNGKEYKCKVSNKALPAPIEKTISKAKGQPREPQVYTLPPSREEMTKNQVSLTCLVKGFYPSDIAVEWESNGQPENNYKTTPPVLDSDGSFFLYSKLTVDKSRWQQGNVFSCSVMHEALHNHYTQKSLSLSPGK
T6 sequence (chain, as listed by the source limits assumed): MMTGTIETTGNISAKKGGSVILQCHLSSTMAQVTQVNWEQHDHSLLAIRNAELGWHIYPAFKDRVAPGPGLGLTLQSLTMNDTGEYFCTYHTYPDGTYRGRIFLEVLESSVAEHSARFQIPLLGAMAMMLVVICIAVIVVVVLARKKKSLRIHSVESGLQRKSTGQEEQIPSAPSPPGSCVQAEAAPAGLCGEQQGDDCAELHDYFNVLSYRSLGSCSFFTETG
T3 sequence (chain, as listed by the source limits assumed): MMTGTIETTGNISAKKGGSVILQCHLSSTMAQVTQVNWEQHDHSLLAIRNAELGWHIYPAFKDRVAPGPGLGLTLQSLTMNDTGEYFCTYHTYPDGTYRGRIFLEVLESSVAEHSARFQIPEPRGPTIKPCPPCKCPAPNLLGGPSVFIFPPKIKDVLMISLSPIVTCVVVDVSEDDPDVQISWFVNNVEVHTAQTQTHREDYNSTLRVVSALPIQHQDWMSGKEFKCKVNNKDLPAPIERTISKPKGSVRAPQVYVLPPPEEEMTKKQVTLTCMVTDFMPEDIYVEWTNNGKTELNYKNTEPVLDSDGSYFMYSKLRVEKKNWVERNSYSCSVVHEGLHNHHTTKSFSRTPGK

B1: PVRIG-A30 (Fc fusion)
chain: QVQLVESGGGLVQPGGSLRLSCAASGRTDSMNVMGWFRRAPGKEREFVARIKWNGDTTYTAYADFLKGRFTLYGAVARNRVYLQMNSLQPEDTAVYYCAAGEVSGSSYSPDYGMHYWGKGTLVTVSS
notes: heavy chain antibody VHH-hinge-CH2-CH3, human IgG1 constant part; not shown: human IgG1 hinge-CH2-CH3
Kd [1]: 0.404 nM
koff [1]: 6.36e-05 s⁻¹
kon [1]: 157000 M⁻¹ s⁻¹
IC50 [2]: 0.255 nM
% AUC to COM701-hIgG4 [3]: 58.9%
% AUC to SRF813-hIgG1 [3]: 58.9%
% IC50 to COM701-hIgG4 [3]: 48.1%
% IC50 to SRF813-hIgG1 [3]: 64.4%

B2: PVRIG-A15 (Fc fusion)
chain: QVQLVESGGGLVQAGGSLRLSCVASGRTFSANTMAWFRQAPGKEREFVAYTRWTDDNTDYASYADFVKGRFTAFRDNTRNTMYLQMNRLRPEDTAVYYCAAATTRGTYYSAGDYNSWGQGTQVTVSS
notes: as for B1
Kd [1]: 0.377 nM
koff [1]: 2.31e-05 s⁻¹
kon [1]: 61200 M⁻¹ s⁻¹
IC50 [2]: 0.208 nM
% AUC to COM701-hIgG4 [3]: 77.2%
% AUC to SRF813-hIgG1 [3]: 77.3%
% IC50 to COM701-hIgG4 [3]: 54.1%
% IC50 to SRF813-hIgG1 [3]: 72.4%

B3: PVRIG-A75 (Fc fusion)
chain: QLQLVESGGGLVQSGGSLRLSCAASGRTRSMYVMGWFRQAPGKEREFVGRIKWSGDTTYTSYADFVKGRFTLYGNQARNTVYLQMNSLKPEDTAVYSCAASKFPVSGVPEHYDYWGQGTQVTVSS
notes: as for B1
Kd [1]: 0.531 nM
koff [1]: 5.67e-05 s⁻¹
kon [1]: 107000 M⁻¹ s⁻¹
IC50 [2]: 0.0621 nM
% AUC to COM701-hIgG4 [3]: 101%
% AUC to SRF813-hIgG1 [3]: 86.6%
% IC50 to COM701-hIgG4 [3]: 89.6%
% IC50 to SRF813-hIgG1 [3]: 93.7%

B4: PVRIG-A60 (Fc fusion)
chain: QVQLVESGGGLVQSGGSLRLSCAASGRTRSMYVMGWFRQAPGKEREFVGRIKWSGDTTYTSYADFVKGRFTLYGNQARNTVYLQMNSLKPEDAAVYYCNLRRLDGVNYWGKGTLVTVSS
notes: as for B1
Kd [1]: 0.283 nM
koff [1]: 3.97e-05 s⁻¹
kon [1]: 141000 M⁻¹ s⁻¹
IC50 [2]: 0.0557 nM
% AUC to COM701-hIgG4 [3]: 117%
% AUC to SRF813-hIgG1 [3]: 103%
% IC50 to COM701-hIgG4 [3]: 98.9%
% IC50 to SRF813-hIgG1 [3]: 96.4%

Further lines, results first:

Kd [1]: 0.846 nM
koff [1]: 7.53e-06 s⁻¹
kon [1]: 8900 M⁻¹ s⁻¹
IC50 [2]: 0.0543 nM
% AUC to COM701-hIgG4 [3]: 145%
% AUC to SRF813-hIgG1 [3]: 126%
% IC50 to COM701-hIgG4 [3]: 138%
% IC50 to SRF813-hIgG1 [3]: 136%
B5: PVRIG-A35 (Fc fusion)
chain: EVQVVESGGGLVQSGGSLRLSCAASGRTRSMYVMGWFRQAPGKEREFVGRIKWSGDTTYTSYADFVKGRFTLYGNQARNTVYLQMNSLKPEDTAVYYCNGRSRFNVINAWGTGTLVTVAS
notes: as for B1

EC50 [4]: 0.779 nM
Fold change vs chimeric antibodies (KD) [5]: 6.23 fold
IC50 [6]: 0.681 nM
EC50 [7]: 6.29 nM
Kd [8]: 0.482 nM
koff [8]: 0.000176 s⁻¹
kon [8]: 365000 M⁻¹ s⁻¹
EC50 [9]: 0.0317 nM
EC50 [10]: 0.0095 nM
B6: TIGIT-006-H3L3 (antibody, V domains shown)
VH: EVQLQESGPGLVKPSETLSLTCAVSGYSMTSDYWNWIRQPPGKKLEWIGYISYSGRTYYNPSLKSRVTISRDTSKNQFSLKLSSVTAADTAVYYCARGDYSNYGGAMYDWGQGTTVTVSS
VL: DIVMTQSPDSLAVSLGERATINCRASQGVSTTIAWYQQKPGQSPKLLIYSASYRYTGVPRFSGSGSGTDFTLTISSLQAEDVAVYYCQQYYSSPFTFGGGTKVEIK
notes: Humanized anti-TIGIT antibody
